Results reported in US20210163606A1.

Experiments:
[1] = molecular target: Human NRP2 (aa23-855) with C-terminal Avi-, Myc- and His-tags (Human) (UniProt O60462); assay: SPR as described for Table E1 (human NRP2 antigen); the antigen for this mouse-IgG1 surrogate is not said separately
[2] = molecular target: Human NRP2 (aa23-855) with C-terminal Avi-, Myc- and His-tags (Human) (UniProt O60462); assay: SPR (ProteOn XPR36), antibody captured on anti-human Fab-kappa, NRP2 as analyte, 1:1 Langmuir fit

B1: aNRP2-28v2/4 (antibody, V domains shown)
VH: QSVKESEGGLFKPTDTLTLTCTVSGFSLSTYSISWVRQAPGNGLEWIGIIGDAGGIIYATWAKSRSTITRSTALNTVTLKMTGLTAADTATYFCARDGTAFDIWGPGTLVTVSS
VL: AYDMTQTPASVEVVVGGTVTIKCQASQSIYSKLGWYQQKPGQPPKLLIYRASTLASGVSSRFKGSGSGTEYTLTISGVQCDDAATYYCQQDYSYINVDNIFGGGTEVVVK
[1]
  Kd: 0.0599 nM

B2: aNRP2-11v7 (antibody, V domains shown)
VH: QVQLVQSGAEVKKPGASVKVSCKASGYTFTSFGISWVRQAPGQGLEWIGEIYPRSGNTYYNENFKGRATMTADKSTSTAYMELRSLRSDDTAVYYCARSSGYYGSTPFPYWGQGTLVTVSS
VL: DIQMTQSPSSLSASVGDRVTITCRASQDISNYLNWYQQKPGKAVKLLIYYTSRLHSGVPSRFSGSGSGTDYTFTISSLQPEDIATYYCQQGNTLPWTFGGGTKVEIK
[2]
  Kd: 0.95 nM

B3: aNRP2-10v5 (antibody, V domains shown)
VH: EVQLVQSGAEVKKPGATVKISCKVSGFNIKDYYIHWVQQAPGKGLEWMGRIDVEDDETKYAPKFQGRVTITADTSTDTAYMELSSLRSEDTAVYYCATPIYGSREAWFAYWGQGTLVTVSS
VL: DIQMTQSPSSLSASVGDRVTITCTASSSVSSSYLHWYQQKPGKAPKLLIYRTSNLASGVPSRFSGSGSGTDFTLTISSLQPEDFATYYCHQYYRSPPTFGGGTKVEIK
[2]
  Kd: 0.2 nM

B4: aNRP2-10v13 (antibody, V domains shown)
VH: EVQLVQSGAEVKKPGATVKISCKVSGFNIKDYYVHWVQQAPGKGLEWMGRIDVHDDETKYAPKFQGRVTITADTSTDTAYMELSSLRSEDTAVYYCATPIYGAREAWFAYWGQGTLVTVSS
VL: DIQMTQSPSSLSASVGDRVTITCTASSSVSSSYLHWYQQKPGKAPKLLIYRTSNLASGVPSRFSGSGSGTDFTLTISSLQPEDFATYYCHQYYRSPPTFGGGTKVEIK
[2]
  Kd: 0.358 nM

B5: aNRP2-10v10 (antibody, V domains shown)
VH: EVQLVQSGAEVKKPGATVKISCKVSGFNIKDYYVHWVQQAPGKGLEWMGRIDVEDDETKYAPKFQGRVTITADTSTDTAYMELSSLRSEDTAVYYCATPIYGAREAWFAYWGQGTLVTVSS
VL: DIQMTQSPSSLSASVGDRVTITCTASSSVSSSYLHWYQQKPGKAPKLLIYRTSNLASGVPSRFSGSGSGTDFTLTISSLQPEDFATYYCHQYYRSPPTFGGGTKVEIK
[2]
  Kd: 0.029 nM

B6: aNRP2-1v3 (antibody, V domains shown)
VH: QVQLVQSGAEVKKPGASVKVSCKASGYTFTSYWMHWVRQAPGQGLEWMGAIYPGNSDTSYNQQFKGRVTMTRDTSTSTVYMELSSLRSEDTAVYYCARRGGGYFDYWGQGTLVTVSS
VL: DIQLTQSPSFLSASVGDRVTITCKASQNVGAAVAWYQQKPGKAPKLLIYSASNRYTGVPSRFSGSGSGTEFTLTISSLQPEDFATYYCQQYSSYPLLTFGGGTKVEIK
[2]
  Kd: 17 nM

B7: aNRP2-14v9 (antibody, V domains shown)
VH: QLQLVESGGGVVQPGRSLRLSCTVSGFSLTSYGVHWVRQAPGKGLEWVGLIWSGGSTDYSPAFISRFTISEDNSKSTVYLQMNSLRAEDTAVYFCARNSYSSGYYAMDYWGQGTTVTVSS
VL: DIQLTQSPSFLSASVGDRVTITCKASQNVGHAVAWYQQKPGKAPKLLIYSASNRYTGVPSRFSGSGSGTEFTLTISSLQPEDFATYYCQQYSRYPPYTFGGGTKVEIK
[2]
  Kd: 0.15 nM

B8: aNRP2-14v10 (antibody, V domains shown)
VH: QLQLVESGGGVVQPGRSLRLSCTVSGFSLTSYGVHWVRQAPGKGLEWVGLIWSGGSTDYSPAFISRFTISEDNSKSTVYLQMNSLRAEDTAVYFCARNSYSSGYYAMDYWGQGTTVTVSS
VL: DIQLTQSPSFLSASVGDRVTITCKASQNVGTAVAWYQQKPGKAPKLLIYSASNRYTGVPSRFSGSGSGTEFTLTISSLQPEDFATYYCQQRSRYPPYTFGGGTKVEIK
[2]
  Kd: 0.17 nM

B9: aNRP2-2v4 (antibody, V domains shown)
VH: QVQLVQSGAEVKKPGASVKVSCKASGYTFTSYWMHWVRQAPGQGLEWMGVIHPNSASTFYNERFKTRATMTVDRSSSTAYMELSSLRSEDTAVYYCSRPGTVRRSDYWGQGTTVTVSS
VL: DVVMTQSPLSLPVTLGQPASISCRSSQNIVHSTGNTYLEWYQQRPGQSPRLLIYKVSNRFSGVPDRFSGSGSGTDFTLKISRVEAEDVGVYYCFQGSHVPWTFGGGTKVEIK
[2]
  Kd: 2.7 nM
